Assay results reported in article PMC5588702 (Structure (London, England : 1993), 2014).

Target: DNA polymerase β polymerase domain with the V303M mutation (UniProt P06766 88-335, V303M, [methyl-13C]methionine labelled)
Test: NMR

ratio KD(pol β•X1NTDred)/KD(pol β•X1NTDox): 25.2
B1: oxidized form of the XRCC1 N-terminal domain, XRCC1(1-155), containing the C12-C20 disulfide bond (domain or fragment, human, UniProt P18887 2-155, looked up)
chain: PEIRLRHVVSCSSQDSTHCAENLLKADTYRKWRAAKAGEKTISVVLQLEKEEQIHSVDIGNDGSAFVEVLVGSSAGGAGEQDYEVLLVTSSFMSPSESRSGSNPNRVRMFGPDKLVRAAAEKRWDRVKIVCSQPYSKDSPFGLSFVRFHSPPDK
modifications: Cys12-Cys20 disulfide bond; N-terminal carbimate (CO2) adduct on Pro2; U-[15N] labelled
